B1: Phage-77, clonal phage peptide MDWCPFYLWDECFN (peptide)
peptide: MDWCPFYLWDECFN
notes: tested as crude clonal phage supernatant; not shown: pIII of the bacteriophage to which the peptide is fused
B2: Phage-76, clonal phage peptide MDWCPRYLWSDCFA (peptide)
peptide: MDWCPRYLWSDCFA
notes: as for B1
B3: Phage-74, clonal phage peptide MDWCPRDMWLFCYN (peptide)
peptide: MDWCPRDMWLFCYN
notes: as for B1
B4: Phage-82, clonal phage peptide MDWCPRDLWTECFA (peptide)
peptide: MDWCPRDLWTECFA
notes: as for B1
B5: Phage-71, clonal phage peptide MDWCPRYLWHECFA (peptide)
peptide: MDWCPRYLWHECFA
notes: as for B1
B6: Phage-91, clonal phage peptide … (peptide)
peptide: MDWCPRDLWFLCYN
notes: as for B1
B7: Phage-78, clonal phage peptide MDWCPRHLWHECFN (peptide)
peptide: MDWCPRHLWHECFN
notes: as for B1
B8: Phage-92, clonal phage peptide MDWCPRHLWHECFF (peptide)
peptide: MDWCPRHLWHECFF
notes: as for B1
B9: Phage-86, clonal phage peptide MDWCPRHLWAECFF (peptide)
peptide: MDWCPRHLWAECFF
notes: as for B1
B10: Phage-73, clonal phage peptide MDWCPRALWHECFN (peptide)
peptide: MDWCPRALWHECFN
notes: as for B1
B11: Phage-83, clonal phage peptide … (peptide)
peptide: MDWCPRFLWDECFN
notes: as for B1
B12: Phage-84, clonal phage peptide MDWCPKYLWSVCFF (peptide)
peptide: MDWCPKYLWSVCFF
notes: as for B1
B13: Phage-90, clonal phage peptide MDWCPIDLWHLCFY (peptide)
peptide: MDWCPIDLWHLCFY
notes: as for B1
B14: Phage-79, clonal phage peptide MDWCPRDLWHECFS (peptide)
peptide: MDWCPRDLWHECFS
notes: as for B1
B15: Phage-75, clonal phage peptide MDWCPRSHWHVCYN (peptide)
peptide: MDWCPRSHWHVCYN
notes: as for B1
B16: Phage-89, clonal phage peptide MDWCPRALWNVCFN (peptide)
peptide: MDWCPRALWNVCFN
notes: as for B1
B17: Phage-70, clonal phage peptide ITWCPSSMWNRCFI (peptide)
peptide: ITWCPSSMWNRCFI
notes: as for B1
B18: Phage-72, clonal phage peptide MFWCPTTMWNRCFT (peptide)
peptide: MFWCPTTMWNRCFT
notes: as for B1
B19: Phage-69, clonal phage peptide MDWCPIHMWADCFA (peptide)
peptide: MDWCPIHMWADCFA
notes: as for B1
B20: Phage-87, clonal phage peptide MDWCPKDLWYLCFA (peptide)
peptide: MDWCPKDLWYLCFA
notes: as for B1
B21: Phage-85, clonal phage peptide MDWCPMDLWYQCFN (peptide)
peptide: MDWCPMDLWYQCFN
notes: as for B1
B22: Phage-88, clonal phage peptide MDWCPIHLWHYCFN (peptide)
peptide: MDWCPIHLWHYCFN
notes: as for B1

How the values were obtained:
[1] = biological target: T1, anti-CD28 scFv (VH - linker 1 - VL) (biotinylated (site not given)); experiment: phage ELISA as before, wells pre-incubated with soluble CD28 (competitor)
[2] = biological target: T1, anti-CD28 scFv (VH - linker 1 - VL); experiment: phage ELISA; biotinylated anti-CD28 scFv on neutravidin plate, clonal phage supernatant, anti-M13-HRP detection;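 note: before phage addition, wells were pretreated with soluble CD28 protein in blocking buffer, or with blocking buffer only as the comparison, then phage were added without washing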

T1 sequence (scFv, as listed by the source): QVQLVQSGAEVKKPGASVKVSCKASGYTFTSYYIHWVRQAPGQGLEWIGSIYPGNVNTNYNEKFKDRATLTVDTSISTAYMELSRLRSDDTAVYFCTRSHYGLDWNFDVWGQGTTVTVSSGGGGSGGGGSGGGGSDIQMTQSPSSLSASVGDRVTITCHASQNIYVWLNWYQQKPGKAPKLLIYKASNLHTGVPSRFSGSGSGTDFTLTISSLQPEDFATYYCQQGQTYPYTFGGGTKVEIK

Row | Binder | CD28 scFv signal in presence of CD28 [1] | CD28 scFv signal [2]
1 | B1 | 0.291 | 2.67
2 | B2 | 1.53 | 2.73
3 | B3 | 1.02 | 2.71
4 | B4 | 0.151 | 2.63
5 | B5 | 0.429 | 2.63
6 | B6 | 0.424 | 2.59
7 | B7 | 0.704 | 2.65
8 | B8 | 0.373 | 2.58
9 | B9 | 0.292 | 2.61
10 | B10 | 0.401 | 2.69
11 | B11 | 0.483 | 2.63
12 | B12 | 0.826 | 2.62
13 | B13 | 0.488 | 2.59
14 | B14 | 0.382 | 2.65
15 | B15 | 0.281 | 1.95
16 | B16 | 0.472 | 2.6
17 | B17 | 0.11 | 0.379
18 | B18 | 0.338 | 0.662
19 | B19 | 0.143 | 2.46
20 | B20 | 0.213 | 2.61
21 | B21 | 0.187 | 2.62
22 | B22 | 0.453 | 2.6

— patent US20260242478A1 (published 2026)
